Data taken from paper PMC12856154.

Molecular target: persulfide dioxygenase from Pseudomonas aeruginosa (PaPDO) (Pseudomonas aeruginosa)
Test: SEC; Superdex 75 10/300, 20 mM Tris-HCl pH 8.0, 200 mM NaCl, 1 mL/min; calibrated with protein standards; elution at 10.8 mL

persulfide dioxygenase from Pseudomonas aeruginosa (PaPDO) (enzyme)
stoichiometry N: 2
